Values of other authors, collected in article PMC12860355.

Target: TATA-binding protein (Homo sapiens) (UniProt P20226)
Sequence of UniProt P20226 (P20226 whole entry): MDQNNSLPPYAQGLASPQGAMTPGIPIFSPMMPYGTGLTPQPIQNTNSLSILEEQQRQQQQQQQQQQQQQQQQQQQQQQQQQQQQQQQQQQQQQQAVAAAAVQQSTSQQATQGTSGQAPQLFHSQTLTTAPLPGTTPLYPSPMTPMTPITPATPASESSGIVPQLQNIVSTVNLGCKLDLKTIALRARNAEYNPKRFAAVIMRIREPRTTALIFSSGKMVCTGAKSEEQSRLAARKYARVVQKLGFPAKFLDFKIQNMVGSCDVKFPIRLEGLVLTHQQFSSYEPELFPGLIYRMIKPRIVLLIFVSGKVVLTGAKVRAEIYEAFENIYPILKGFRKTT

For Importin 9 (from UniProt Q96P70), the Kd is given as 1 nM.
